The values that follow come from paper PMC2139968 (The Journal of Cell Biology, 1997).

This test deals with F-actin (rabbit, UniProt P68135 1-377). As to the kind of experiment: co-sedimentation.

B1: His6-neurabin (natural protein)
chain: not shown
As for B1, the “stoichiometry N” value is ~8 actin molecules per His6-neurabin molecule.
